Laboratory results: article doi:10.1101/2025.03.14.643254

Molecular target: MRE11 (human) (UniProt P49959)
Experiment: cryo-EM structure

MRE11 (human), sequence (P49959 whole entry): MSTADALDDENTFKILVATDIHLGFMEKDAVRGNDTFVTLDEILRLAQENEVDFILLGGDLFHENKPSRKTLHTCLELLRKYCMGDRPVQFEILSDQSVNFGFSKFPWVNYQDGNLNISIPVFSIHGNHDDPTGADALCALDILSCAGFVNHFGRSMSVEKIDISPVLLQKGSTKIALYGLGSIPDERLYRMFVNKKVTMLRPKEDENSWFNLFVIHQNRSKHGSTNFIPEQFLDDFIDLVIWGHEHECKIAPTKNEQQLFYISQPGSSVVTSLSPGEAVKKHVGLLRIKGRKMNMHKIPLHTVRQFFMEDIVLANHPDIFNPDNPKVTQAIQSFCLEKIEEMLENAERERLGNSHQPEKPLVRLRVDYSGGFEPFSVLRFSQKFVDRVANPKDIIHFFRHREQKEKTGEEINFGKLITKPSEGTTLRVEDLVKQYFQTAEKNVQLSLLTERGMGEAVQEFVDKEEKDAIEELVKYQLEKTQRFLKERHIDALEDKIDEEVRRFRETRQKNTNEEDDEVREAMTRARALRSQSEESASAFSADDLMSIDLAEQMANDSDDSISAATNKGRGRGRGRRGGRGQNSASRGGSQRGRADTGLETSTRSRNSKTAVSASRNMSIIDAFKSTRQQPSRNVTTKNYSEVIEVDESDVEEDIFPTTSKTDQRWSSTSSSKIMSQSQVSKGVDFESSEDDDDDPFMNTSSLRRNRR
MRE11, sequence (P49959 whole entry): as above
NBS1, sequence (O60934 whole entry): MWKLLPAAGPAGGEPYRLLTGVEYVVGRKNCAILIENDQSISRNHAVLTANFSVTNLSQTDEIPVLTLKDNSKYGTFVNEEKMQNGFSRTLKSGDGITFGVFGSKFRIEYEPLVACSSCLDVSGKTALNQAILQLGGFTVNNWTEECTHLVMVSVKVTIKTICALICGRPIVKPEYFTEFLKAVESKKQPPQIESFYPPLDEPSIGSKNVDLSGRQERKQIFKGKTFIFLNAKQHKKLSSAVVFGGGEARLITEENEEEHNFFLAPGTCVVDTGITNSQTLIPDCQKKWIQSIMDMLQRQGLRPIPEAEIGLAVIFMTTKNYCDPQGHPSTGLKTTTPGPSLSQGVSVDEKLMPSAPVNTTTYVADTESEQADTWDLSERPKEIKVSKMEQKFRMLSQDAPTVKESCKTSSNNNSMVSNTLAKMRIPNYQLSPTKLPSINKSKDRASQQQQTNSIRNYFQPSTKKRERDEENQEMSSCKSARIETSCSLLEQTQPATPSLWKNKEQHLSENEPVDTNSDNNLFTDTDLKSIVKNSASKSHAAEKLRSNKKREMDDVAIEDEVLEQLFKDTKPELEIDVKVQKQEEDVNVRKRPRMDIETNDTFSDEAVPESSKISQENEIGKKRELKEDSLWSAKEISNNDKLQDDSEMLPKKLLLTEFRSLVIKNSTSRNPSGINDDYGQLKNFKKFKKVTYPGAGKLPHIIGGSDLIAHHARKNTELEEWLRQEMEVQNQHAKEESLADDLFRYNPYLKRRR

| stoichiometry N | stoichiometry N (NBS1 per MRE11 dimer) | Substance |
| --- | --- | --- |
| 2 | – | MRE11 (from UniProt P49959) (natural protein) |
| – | 1 | NBS1 (from UniProt O60934) (natural protein) |
